Test results taken from publication PMC4267653, “DNA cleavage by CgII and NgoAVII requires interaction between N- and R-proteins and extensive nucleotide hydrolysis” (Nucleic Acids Research, 2014).

Legend:
[1] = target: R.CglI (containing a StrepII-tag), co-expressed with N.CglI (Corynebacterium glutamicum ATCC 13032); experiment: densitometry of SDS-PAGE; purified RN.CglI complex resolved by SDS/PAGE, molar ratio of the two bands
[2] = target: N.CglI (containing a His6-tag), co-expressed with R.CglI (Corynebacterium glutamicum ATCC 13032); experiment: SEC + other: SAXS; purified co-expressed RN.CglI complex; molecular weight close to the sum of the R.CglI and N.CglI dimers
[3] = target: R.CglI (containing a StrepII-tag), co-expressed with N.CglI (Corynebacterium glutamicum ATCC 13032); experiment: as above
[4] = target: R.CglI (Corynebacterium glutamicum ATCC 13032)
[5] = target: N.CglI (Corynebacterium glutamicum ATCC 13032); experiment: SAXS; full-length R- and N-proteins in 20 mM Tris-HCl pH 8.0, 400 mM KCl, 0.1 mM EDTA, 1 mM DTT; molecular weight from scattering data (MoW)
[6] = target: N.CglI (Corynebacterium glutamicum ATCC 13032); experiment: SEC; gel filtration of single proteins and domains, Superdex 200 HR, room temperature, 20 mM Tris-HCl pH 8.0, 300 mM NaCl, 5 mM 2-mercaptoethanol; 20 μM (monomer) loading concentration
[7] = target: N.CglI isolated Z1 domain (Corynebacterium glutamicum ATCC 13032); experiment: as above
[8] = target: N.CglI isolated Z1-C domain (Corynebacterium glutamicum ATCC 13032); experiment: as above
[9] = target: N.CglI-DEAD-Z1 domain (Corynebacterium glutamicum ATCC 13032); experiment: as above
[10] = target: R.CglI (Corynebacterium glutamicum ATCC 13032); experiment: SAXS; full-length R- and N-proteins in 20 mM Tris-HCl pH 8.0, 400 mM KCl, 0.1 mM EDTA, 1 mM DTT; molecular weight from scattering data (MoW)
[11] = target: R.CglI (Corynebacterium glutamicum ATCC 13032); experiment: SEC; gel filtration of single proteins and domains, Superdex 200 HR, room temperature, 20 mM Tris-HCl pH 8.0, 300 mM NaCl, 5 mM 2-mercaptoethanol; 20 μM (monomer) loading concentration
[12] = target: R.NgoAVII (Neisseria gonorrhoeae FA1090); experiment: SAXS; full-length R- and N-proteins in 20 mM Tris-HCl pH 8.0, 400 mM KCl, 0.1 mM EDTA, 1 mM DTT; molecular weight from scattering data (MoW)
[13] = target: R.NgoAVII (Neisseria gonorrhoeae FA1090); experiment: SEC; gel filtration of single proteins and domains, Superdex 200 HR, room temperature, 20 mM Tris-HCl pH 8.0, 300 mM NaCl, 5 mM 2-mercaptoethanol; 20 μM (monomer) loading concentration
[14] = system: R.CglI (Corynebacterium glutamicum ATCC 13032); experiment: EMSA; details: no metal, 0.1 mM EDTA; EMSA: 1 nM 33P-DNA, 1-500 nM protein monomer, 40 mM Tris-acetate pH 8.3 (25°C), 0.1 mM EDTA (NgoAVII: 5 mM Ca-acetate instead), 0.1 mg/ml BSA, 10% glycerol …
[15] = system: R.CglI in RN.CglI complex;N.CglI (Corynebacterium glutamicum ATCC 13032;Corynebacterium glutamicum ATCC 13032); experiment: EMSA; details: EMSA: 1 nM 33P-DNA, 1-500 nM protein monomer, 40 mM Tris-acetate pH 8.3 (25°C), 0.1 mM EDTA (NgoAVII: 5 mM Ca-acetate instead), 0.1 mg/ml BSA, 10% glycerol …
[16] = target: the molecule itself; experiment: SEC; gel filtration of single proteins and domains, Superdex 200 HR, room temperature, 20 mM Tris-HCl pH 8.0, 300 mM NaCl, 5 mM 2-mercaptoethanol; 20 μM (monomer) loading concentration

N.CglI (containing a His6-tag), co-expressed with R.CglI (enzyme)
stoichiometry N (N.CglI per R.CglI) [1]: 0.75
stoichiometry N [2]: 2
stoichiometry N (N.CglI per R.CglI (2:2)) [3]: 1

N.CglI (enzyme)
ATP hydrolysis rate of N.CglI at saturating ATP (4 mM) and optimal concentrations of DNA and R.CglI (malachite green assay) [4]: 176 ATP/s
stoichiometry N [5]: 2
stoichiometry N [6]: 2

N.CglI isolated Z1 domain (domain or fragment)
stoichiometry N [7]: 2

N.CglI isolated Z1-C domain (domain or fragment)
stoichiometry N [8]: 2

N.CglI-DEAD-Z1 domain (domain or fragment)
stoichiometry N [9]: 2

R.CglI (containing a StrepII-tag), co-expressed with N.CglI (enzyme)
stoichiometry N [3]: 2

R.CglI (enzyme)
stoichiometry N [10]: 2
stoichiometry N [11]: 2

R.NgoAVII (enzyme)
stoichiometry N [12]: 2
stoichiometry N [13]: 2

TACAATCGATAATAGCCGCCGTGCGAGCCCATT (double strand) [33 bp cognate duplex]
Kd [14]: 9.2 nM
Kd [15]: 1.9 nM

B1: R.CglI isolated PLD domain (domain or fragment)
chain: PLDKFFDKELKDTHHLDITVGYISEKSLQYLLLIAGTHPDLTITLTCGMHAREGMTAAQLHHARVLHDYLSDHDRGGVFVIPRLRYHGKIYLFHKNQHTDPIAYIGSANLSAIVPGYTSTFETGVILDPAPEDLVLH
stoichiometry N [16]: 2
